Data as given in patent CN114106188A (SHENZHEN PEOPLE HOSPITAL, dated 2022).

Biological target: T1, ERp57蛋白 (蛋白二硫化物异构酶A3, purified recombinant full-length protein)
T1 chain: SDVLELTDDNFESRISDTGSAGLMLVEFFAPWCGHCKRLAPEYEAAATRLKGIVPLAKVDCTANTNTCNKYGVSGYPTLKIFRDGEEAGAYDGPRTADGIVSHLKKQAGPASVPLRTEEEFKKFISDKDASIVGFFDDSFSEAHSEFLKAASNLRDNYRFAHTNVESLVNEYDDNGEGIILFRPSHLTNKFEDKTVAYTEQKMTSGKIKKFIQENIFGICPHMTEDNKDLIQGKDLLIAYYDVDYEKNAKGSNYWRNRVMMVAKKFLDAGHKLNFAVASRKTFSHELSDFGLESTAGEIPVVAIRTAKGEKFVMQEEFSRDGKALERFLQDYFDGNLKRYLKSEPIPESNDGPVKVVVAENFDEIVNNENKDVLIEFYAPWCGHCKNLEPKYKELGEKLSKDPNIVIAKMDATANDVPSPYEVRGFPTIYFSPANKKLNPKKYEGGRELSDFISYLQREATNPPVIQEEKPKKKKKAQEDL
Assay: SPR (Biacore), antigen protein immobilised on chip, nanobody as analyte

B1: NbA11纳米抗体 (VHH)
VHH: AVQLVESGGGLVQAGGSLRLSCAASGRAFSRYAVGWFRQTPGKEREFVAAISYHGGYTAYADSVKGRFTISRDSTSNTVHLQMNSLKPEDTAVYYCNTDARALYDYWGQGTQVTVSS
notes: Alpaca-derived nanobody from a naive phage display library; Expressed in E. coli from PET-14B with an HA tag and purified on a Ni column
**Q.** B1 was tested. Which Kd did it give?
**A.** 419 nM
